From the RNAGym collection of RNA variant scans (doi:10.7554/elife.90254)

B1: LINE1-full (parent)
chain: UACGUAGGUGGUUUUCCCCUGAUAGUGCUAAGGGGGCCUGGAAGUUUGGACUGGGCAGAGCUCAACACAGCGUGGCAAAGUGGCUGUGGCUAGACUGCCUCUCUGGAUUCCUCGUCACUCAGCAGGGCAUCUCUGAGAGAAAUGCC

Variants of: B1
Test: self-cleavage, relative activity (ratio to wild type); higher = more cleavage; in vitro, sequencing; the parent is a self-cleaving ribozyme

| Variant | self-cleavage |
| --- | --- |
| A59G G97A | 0.03 |
| A59G A136U | 0.09 |
| A59G U134C | 0.15 |
| A59U U130C | 0.63 |
| G58A A140G | 0.04 |
| A59C A142G | 0.57 |
| A59U U85A | 0.1 |
| A59U U85C | 0.16 |
| G58A C71U | 0.03 |
| G58U A136G | 0.01 |
| A57U U115C | 0.18 |
| G58A U109A | 0.04 |
| G60A A107G | 0.03 |
| G58U C71U | 0.04 |
| A59U C128U | 1.02 |
| G58U A64U | 0.05 |
| A59G G88A | 0.06 |
| A59C U73A | 1.45 |
| A59G U85G | 0.14 |
| A59G U85C | 0.09 |
| A59G U85A | 0.04 |
| G58U A142G | 0.03 |
| A59G C90U | 0.03 |
| A59U A121U | 0.79 |

| Variant | self-cleavage |
| --- | --- |
| A59G A79U | 0.07 |
| A57U U104A | 0.06 |
| A59U U102C | 0.94 |
| A59G G126U | 0.11 |
| A59C A117G | 2.7 |
| A59G C95A | 0.01 |
| A59U A124U | 0.68 |
| A59U A124G | 0.75 |
| A59G C61A | 0.03 |
| A59U A107G | 1.96 |
| G58A A77G | 0.06 |
| A59G C103U | 0.06 |
| A59G A64U | 0.08 |
| A59G A64G | 0.06 |
| A59G A64C | 0 |
| G58C A124U | 0.03 |
| A59U G89A | 0.04 |
| A59C C146U | 1.23 |
| A59G A117C | 0.2 |
| A59G A117G | 0.18 |
| G58A A121G | 0.13 |
| A59U A94G | 1.71 |
| A59G U115A | 0.11 |
| A59G U115C | 0.07 |

| Variant | self-cleavage |
| --- | --- |
| G58A U134C | 0.01 |
| A59C U134A | 1.46 |
| A59G A77U | 0.05 |
| A59G A77C | 0.33 |
| A59G A107G | 0.09 |
| A59G G125C | 0.2 |
| A59G U81G | 0.09 |
| A59G C113U | 0.06 |
| A59G C113A | 0.07 |
| A59G A67U | 0.06 |
| A59G G135A | 0.08 |
| A59U A67G | 0.39 |
| G58U A140G | 0.05 |
| G60A A94G | 0 |
| G60A A94C | 0.01 |
| G58A U81C | 0.05 |
| A59C A67G | 0 |
| A59G | 0.09 |
| A59C | 0.96 |
| A59U | 0.8 |
| A59G A124G | 0.13 |
| A59U A78U | 1.43 |
| A59U A78G | 0.68 |
| A57U U85C | 0.06 |

| Variant | self-cleavage |
| --- | --- |
| A57U U85A | 0.05 |
| G58A U119C | 0.06 |
| A59G U104C | 0.15 |
| A59G U104G | 0.08 |
| A59G U62A | 0.06 |
| A59G U62C | 0.1 |
| A57U U108C | 0.17 |
| A59U G60A | 0.05 |
| A59G U119C | 0.13 |
| A59G U119A | 0.09 |
| A59U A64U | 0.62 |
| A59G U100A | 0.07 |
| A59G U100C | 0.16 |
| A59G C84A | 0.04 |
| G58U U81C | 0.05 |
| A57U U143C | 0.14 |
| G58U U87C | 0.03 |
| A57U U132A | 0.13 |
| A57U U73A | 0.06 |
| A57U U73C | 0.1 |
| G58U A78G | 0.03 |
| A59G U96G | 0 |
| A59G U96C | 0.04 |
| A59G A129U | 0.19 |

| Variant | self-cleavage |
| --- | --- |
| A59U G126A | 0.59 |
| A59U C123U | 0.8 |
| G58U U100G | 0.2 |
| G58U U100C | 0.09 |
| A59U U87A | 0.07 |
| A59G G114U | 0.07 |
| A59G C123U | 0.05 |
| G58A G144A | 0.04 |
| A59G A69U | 0.06 |
| G58U A124G | 0.01 |
| G58U A124C | 0.03 |
| A59U A77G | 1.01 |
| A59U A136U | 0.87 |
| A59G U130A | 0.1 |
| A59G U130C | 0.17 |
| A59G A138G | 0.1 |
| G60A A77G | 0.03 |
| A59G U87C | 0.11 |
| A59G U87A | 0.06 |
| A59G U87G | 0 |
| G60A A121U | 0.1 |
| G58A U62C | 0.08 |
| A59C A138U | 1.62 |
| A59U U108C | 1.09 |

| Variant | self-cleavage |
| --- | --- |
| A59U U108G | 0.84 |
| G58A U73C | 0.04 |
| G60A A124G | 0.05 |
| A59G G106A | 0.06 |
| A59G U73A | 0.08 |
| A59G U73G | 0.12 |
| A59G A78U | 0.1 |
| A59G A92U | 0.1 |
| A59G A92C | 0.14 |
| A59G A65U | 0.08 |
| A59U U115C | 1.34 |
| A57U U62G | 0 |
| A57U U100C | 0.19 |
| A59U U104C | 1.02 |
| G58U U143C | 0.07 |
| G58A U104A | 0.03 |
| A59G U132C | 0.11 |
| A59G C71U | 0.04 |
| G58U U62C | 0 |
| G58U U62A | 0.02 |
| A59G C76U | 0.12 |
| A59C U102A | 1.1 |
| A59C U102C | 2.07 |
| G58U A69G | 0.07 |

| Variant | self-cleavage |
| --- | --- |
| A59G U102C | 0.1 |
| A59G U102A | 0 |
| A59G G80A | 0.08 |
| G58A A64G | 0.03 |
| G58A A142G | 0 |
| A57U U119C | 0.06 |
| A59U U91C | 0.34 |
| A59U U73A | 0.94 |
| A59U U134G | 1.26 |
| A59U A79C | 1.23 |
| A59G U109A | 0.09 |
| G58A A94G | 0 |
| A59G A94C | 0.29 |
| A57U U102A | 0.08 |
| G58C G72U | 0.02 |
| A59G G60C | 0.07 |
| G58U U132C | 0.01 |
| A59G C133G | 0.12 |
| A59G U143G | 0.03 |
| A59G U143C | 0.1 |
| A59G U108C | 0.11 |
| A59G U108A | 0.11 |
| A57U U134A | 0.1 |
